Our source for the activity values is US20140223606, “COMPOSITIONS AND METHODS COMPRISING SEQUENCES HAVING MEGANUCLEASE ACTIVITY” (PIONEER HI BRED INTERNATIONAL INC, published 2014).

Test in all cases: cell_activity; yeast 37 C; 30 C: 0
What all share (conditions): tags: NLS, 6xHis

For one data set, the target named is T1, ZM6.22v2(I3) (artificial).
T1 chain: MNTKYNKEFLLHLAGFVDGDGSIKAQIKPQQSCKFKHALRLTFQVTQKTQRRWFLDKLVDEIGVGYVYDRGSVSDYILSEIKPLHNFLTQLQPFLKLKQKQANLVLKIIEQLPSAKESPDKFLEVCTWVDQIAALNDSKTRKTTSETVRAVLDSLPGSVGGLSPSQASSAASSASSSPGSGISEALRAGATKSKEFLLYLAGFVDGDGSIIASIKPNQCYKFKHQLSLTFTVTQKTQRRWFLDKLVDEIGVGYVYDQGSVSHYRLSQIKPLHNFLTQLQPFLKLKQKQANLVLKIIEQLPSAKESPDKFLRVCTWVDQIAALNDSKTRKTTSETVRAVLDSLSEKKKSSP
On the procedure: (§1) A 3 mL culture of selective media (MP Biomedical) was inoculated with a single colony of the yeast screening strain and grown at 30° C. overnight. On the following day, a 50 ml YPD culture (MP Biomedical) was started with 2 ml of the overnight culture and grown at 30° C. overnight. On the following day, the cells were harvested by centrifugation at 4000 rpm. The cells were resuspended in 100 ml ice cold water and centrifuged again. The cells were then washed in 1.2 M sorbitol, followed by treatment with 2 ml of 10 mM Tris pH 8.0, 1 mM EDTA, 100 mM Lithium acetate, 10 mM DTT, 0.6M sorbitol for 30 minutes at 30° C. with shaking. The cells were recovered by centrifugation, washed in 40 ml 1.2M sorbitol and finally resuspended in 250 microliters of 1.2M sorbitol. 50 microliter aliquots were transferred to test tubes on ice. Up to 5 microliters of DNA (100-500 nanograms) were added. The suspension was transferred to a 0.2 cm electroporation cuvette, on ice. Electroporation was performed with a pulse charge at 1.5 kV, 200 ohms, 25 microF (pulse time of 5 milliseconds). 1 mL YPD media (MP Biomedical) was added and the cells were allowed to recover at 30° C. for 1-2 hr. The cells were centrifuged, resuspended in 100 uL 1M sorbitol and plated on selective media lacking leucine and containing 2% galactose. The resulting yeast colonies were incubated at various temperatures ranging from 22 to 37 degrees Celsius for 7-10 days. I-CreI and meganucleases derived from it have maximal activity at or above 37 degrees Celsius. Screening was performed at a range of temperatures from 22 to 37 degrees in order to observe increases in activity at lower temperatures which are relevant to certain biological systems (eg. plant cells, plant cell cultures, etc). At that time the red/white sectoring phenotype, indicative of meganuclease activity was observed. Colonies with increased white sectoring over the parental meganuclease (indicating colonies expressing a meganuclease with increased meganuclease activity), also referred to as “hits” and sometimes completely white, were isolated for further analysis.
(§2) A total of 13 ZM6.22v2 variants with increased activity were confirmed in the yeast system (as described in Example 6). Increased activity was observed across a range of temperatures: 28 degrees Celsius, 30 degrees Celsius and 37 degrees Celsius, as shown in Table 16.

Another data set concerns the target T2, ZM6.22v2(I4) (artificial).
T2 chain: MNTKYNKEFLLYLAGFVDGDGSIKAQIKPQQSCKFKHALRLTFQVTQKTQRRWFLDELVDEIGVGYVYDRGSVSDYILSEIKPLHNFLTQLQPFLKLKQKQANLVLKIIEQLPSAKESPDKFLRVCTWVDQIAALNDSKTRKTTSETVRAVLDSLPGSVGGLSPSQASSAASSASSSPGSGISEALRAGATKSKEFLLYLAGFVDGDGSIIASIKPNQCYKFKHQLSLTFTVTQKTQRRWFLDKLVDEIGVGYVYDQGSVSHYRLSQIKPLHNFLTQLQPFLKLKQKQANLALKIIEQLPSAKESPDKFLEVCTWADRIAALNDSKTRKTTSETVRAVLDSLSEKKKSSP
On the procedure: as §1, §2

For a further data set, the target named is T3, ZM6.22v2(I7) (artificial).
T3 chain: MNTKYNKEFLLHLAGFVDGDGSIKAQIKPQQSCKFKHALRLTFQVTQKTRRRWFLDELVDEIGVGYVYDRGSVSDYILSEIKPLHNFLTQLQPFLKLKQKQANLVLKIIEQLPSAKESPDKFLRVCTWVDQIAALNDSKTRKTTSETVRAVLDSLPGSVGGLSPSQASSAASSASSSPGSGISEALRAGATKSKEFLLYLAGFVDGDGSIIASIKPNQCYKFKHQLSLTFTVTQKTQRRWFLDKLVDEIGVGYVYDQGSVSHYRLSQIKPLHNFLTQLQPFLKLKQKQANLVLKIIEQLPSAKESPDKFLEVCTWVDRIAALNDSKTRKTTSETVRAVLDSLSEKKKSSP
The method, then:
as §1, §2

For a further data set, the target named is T4, ZM6.22v2(I9) (artificial).
T4 chain: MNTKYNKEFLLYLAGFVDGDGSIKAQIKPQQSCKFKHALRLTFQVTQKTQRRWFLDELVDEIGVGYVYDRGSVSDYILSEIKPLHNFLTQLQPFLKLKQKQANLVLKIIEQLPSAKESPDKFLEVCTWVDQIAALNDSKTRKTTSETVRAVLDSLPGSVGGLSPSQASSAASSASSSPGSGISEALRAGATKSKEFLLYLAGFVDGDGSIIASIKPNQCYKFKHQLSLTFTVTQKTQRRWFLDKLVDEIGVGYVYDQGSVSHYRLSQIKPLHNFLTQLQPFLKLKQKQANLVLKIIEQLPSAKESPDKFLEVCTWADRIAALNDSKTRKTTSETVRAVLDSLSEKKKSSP
On the procedure: as §1, §2

For the next data set, the target named is T5, ZM6.22v2 (artificial).
T5 chain: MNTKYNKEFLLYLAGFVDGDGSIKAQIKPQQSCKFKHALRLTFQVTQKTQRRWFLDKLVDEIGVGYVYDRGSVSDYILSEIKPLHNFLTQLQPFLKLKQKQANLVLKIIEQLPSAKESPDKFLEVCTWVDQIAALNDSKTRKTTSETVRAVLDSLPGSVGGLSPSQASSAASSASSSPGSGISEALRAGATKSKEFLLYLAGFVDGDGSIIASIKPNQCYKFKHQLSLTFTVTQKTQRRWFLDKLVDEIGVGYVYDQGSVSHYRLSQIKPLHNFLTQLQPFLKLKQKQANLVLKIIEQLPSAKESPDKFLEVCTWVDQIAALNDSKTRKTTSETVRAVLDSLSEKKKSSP
The method, then: as §1, §2

B1: ZM6.22v2 recognition site (dsDNA)
DNA 1: ATTGCTCTCTCACATACTTTTA
DNA 2: TAAAAGTATGTGAGAGAGCAAT
As for B1, the activity in the data set with ZM6.22v2(I3) came out at 2 score 0-4; with ZM6.22v2(I4), 3 score 0-4; in the data set with ZM6.22v2(I7), 2 score 0-4; with ZM6.22v2(I9), 2 score 0-4; with ZM6.22v2 it was 1 score 0-4.
